Results taken from publication PMC6221542.

Each substance was assayed against H3K9me3 peptide NH2-…(me3)STGG-minipeg-K(5-fam)-NH2 (assay: fluorescence polarisation).

| Substance | Kd [nM] |
| --- | --- |
| CBX1 chromodomain, wild type (domain or fragment) | 2780 |
| CBX1 chromodomain V22E/K25E/D59S (domain or fragment) | 210 |
| CBX1 chromodomain V22E/K25S/D59F (domain or fragment) | 320 |
